Target: T1, hsa-1: WT - Full Length HSA (human, UniProt P02768 25-609)
T1 construct: Yeast-expressed; also called HSA-wt; wt-HSA; not shown: Factor Xa cleavage site
Test: method and origin of the value not stated

Kd: ~80 µM
B1: recombinant mouse FcRn (R&D Systems, cat#6775-FC-050) (receptor)
chain 1: SETRPPLMYHLTAVSNPSTGLPSFWATGWLGPQQYLTYNSLRQEADPCGAWMWENQVSWYWEKETTDLKSKEQLFLEALKTLEKILNGTYTLQGLLGCELASDNSSVPTAVFALNGEEFMKFNPRIGNWTGEWPETEIVANLWMKQPDAARKESEFLLNSCPERLLGHLERGRRNLEWKEPPSMRLKARPGNSGSSVLTCAAFSFYPPELKFRFLRNGLASGSGNCSTGPNGDGSFHAWSLLEVKRGDEHHYQCQVEHEGLAQPLTVDLDSSARSS
chain 2: IQKTPQIQVYSRHPPENGKPNILNCYVTQFHPPHIEIQMLKNGKKIPKVEMSDMSFSKDWSFYILAHTEFTPTETDTYACRVKHASMAEPKTVYWDRDM
notes: Bought reagent
